# Experimental data from PMC10439124.
# Biological target: Pfs230D1-E2p fusion protein (Pfs230D1-linker-E2p), 60-copy nanoparticle (Plasmodium falciparum (3D7) | Geobacillus stearothermophilus) (UniProt P68874)
# Test: SEC-MALS + other: SEC-SAXS; SIBYLS beamline 12.3.1; the sample was injected into a size-exclusion column and a post-column splitter directed the eluate to the MALS and SAXS systems; molecular weight from Astra 6 (MALS) and PRIMUS/ATSAS (SAXS)
substance,measurement,value
"Pfs230D1-E2p fusion protein (Pfs230D1-linker-E2p), 60-copy nanoparticle (from UniProt P68874 542-736)",stoichiometry N,60
